This is an account of results in US20140356358A1 (Amgen, published 2014).

Test [1] addresses T1, human neonatal Fc receptor (hFcRn) (human, UniProt P55899 24-290; P61769 21-119).
T1 construct: Biotinylated in the ELISA, Octet and yeast assays; also called human FcRn; huFcRn
The experiment in a line: phage ELISA pH 7.4. On the procedure:
(§1) Approximately 100 μL of biotinylated human FcRn at 2 μg/mL was added to the wells of MAXISORP™ plates coated with 10 μg/mL streptavidin. After washing with PBS plus 0.05% Tween 20 (PBST) five times, phage from the overnight cultures in MES buffer at pH 6.0 or pH 7.4 were added to the plates and incubated at room temperature for 1 hr. A horseradish peroxidase (HRP)-conjugated anti-M13 antibody was used to detect the binding phage, and the plates were scored by a microtiter plate reader using a wavelength in the visible range.
(§2) Binding was assessed by a quantitative enzyme-linked immunoadsorbent assay (ELISA). The ELISA scores reflect binding affinity, with higher scores meaning higher affinity. Typically, scores higher than about 3˜5 indicate binding above background. For library L5, the insertions are between the N169 and G170 according to the numbering in FIG. 2. For libraries 6A and 6B, the insertions are between L143 and T144 according to the numbering in FIG. 2.
(ELISA stands for enzyme-linked immunosorbent assay.)

The target in test [2] is T1, human neonatal Fc receptor (hFcRn). The experiment in a line: phage ELISA pH 6. The protocol: as §1, §2

Changes are numbered by the printed parent chain.
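Also: higher score means stronger binding and above about 3 to 5 exceeds background.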

T1 sequence (P55899 24-290 limits assumed, chain 1 of 2): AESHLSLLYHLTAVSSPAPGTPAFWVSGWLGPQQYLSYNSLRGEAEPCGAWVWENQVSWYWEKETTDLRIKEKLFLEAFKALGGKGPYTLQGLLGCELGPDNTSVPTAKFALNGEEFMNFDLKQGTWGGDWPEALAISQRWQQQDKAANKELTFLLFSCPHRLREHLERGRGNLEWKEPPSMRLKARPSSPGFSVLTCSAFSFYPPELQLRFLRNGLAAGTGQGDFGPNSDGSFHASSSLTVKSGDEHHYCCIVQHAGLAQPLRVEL
T1 sequence (P61769 21-119 limits assumed, chain 2 of 2): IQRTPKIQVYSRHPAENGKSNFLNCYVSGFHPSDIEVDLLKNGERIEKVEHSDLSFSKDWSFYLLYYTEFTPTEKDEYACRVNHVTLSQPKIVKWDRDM

B1: L5 isolate with insertion SEQ ID NO: 408 (other)
chain: EPKSCDKTHTCPPCPAPELLGGPSVFLFPPKPKDTLMISRTPEVTCVVVDVSHEDPEVKFNWYVDGVEVHNAKTKPREEQYNSTYRVVSVLTVLHQDWLNGKEYKCKVSNKALPAPIEKTISKAKGQPREPQVYTLPPSRDELTKNQVSLTCLVKGFYPSDIAVEWESNGGCQKGWVFCGGGQPENNYKTTPPVLDSDGSFFLYSKLTVDKSRWQQGNVFSCSVMHEALHNHYTQKSLSLSPGK
With B1, the results for the ELISA score in test [1] and in test [2] were 0.4 and 72, respectively.

B2: L5 isolate with insertion SEQ ID NO: 424 (other)
chain: B1 chain with K174Y, G175P, W176R, V177K, F178L
For B2, the ELISA score turned out to be 0.3 in test [1] and 59.6 in test [2].

B3: L5 isolate with insertion SEQ ID NO: 441 (other)
chain: B1 chain with Q173E, K174A, G175T, W176M, V177T, F178W
Regarding B3, the results for the ELISA score in test [1] and in test [2] were 0.6 and 54.7, respectively.

B4: L5 isolate with insertion SEQ ID NO: 414 (other)
chain: B1 chain with Q173V, K174N, G175T, V177W, F178S
For the molecule B4, the ELISA score in test [1] was found to be 0.3; in test [2] it was 65.2.

B5: L5 isolate with insertion SEQ ID NO: 435 (other)
chain: B1 chain with Q173K, K174R, G175E, W176N, V177P, F178Y
With B5, the ELISA score in test [1] worked out at 0.7; in test [2], 55.6.

B6: L5 isolate with insertion SEQ ID NO: 421 (other)
chain: B1 chain with Q173N, K174P, G175H, W176R, V177T, F178P
Consider B6, for which the ELISA score was 0.3 in test [1] and 60.9 in test [2].

B7: L5 isolate with insertion SEQ ID NO: 428 (other)
chain: B1 chain with Q173E, K174M, G175E, W176N, V177A, F178W
With B7, the values for the ELISA score in test [1] and in test [2] were 0.5 and 58.5, respectively.

B8: L5 isolate with insertion SEQ ID NO: 433 (other)
chain: B1 chain with Q173E, K174I, G175P, W176H, V177S
On to B8, for which the ELISA score came out at 0.7 in test [1] and 57.2 in test [2].

B9: L5 isolate with insertion SEQ ID NO: 418 (other)
chain: B1 chain with Q173I, K174T, G175E, W176F, V177S, F178H
Turning to B9, the figures for the ELISA score in test [1] and in test [2] were 0.4 and 61.2, respectively.

B10: L5 isolate with insertion SEQ ID NO: 420 (other)
chain: B1 chain with Q173H, K174G, G175T, W176K, V177Q
In the case of B10, the ELISA score in test [1] was determined as 0.5; in test [2], 61.

B11: L5 isolate with insertion SEQ ID NO: 422 (other)
chain: B1 chain with K174H, G175S, W176P, V177P, F178L
As for B11, the values for the ELISA score in test [1] and in test [2] were 0.3 and 60.3, respectively.

B12: L5 isolate with insertion SEQ ID NO: 416 (other)
chain: B1 chain with Q173E, K174T, G175H, W176Y, V177T, F178Y
For the molecule B12, the results for the ELISA score in test [1] and in test [2] were 0.5 and 63, respectively.

B13: L5 isolate with insertion SEQ ID NO: 425 (other)
chain: B1 chain with Q173I, K174G, G175P, W176F, V177W, F178W
Turning to B13, the figures for the ELISA score in test [1] and in test [2] were 0.3 and 59.2, respectively.

B14: L5 isolate with insertion SEQ ID NO: 436 (other)
chain: B1 chain with Q173A, K174E, G175R, W176Q, V177Y, F178Y
As to B14, the ELISA score in test [1] amounted to 1.4; in test [2] it was 55.5.

B15: L5 isolate with insertion SEQ ID NO: 419 (other)
chain: B1 chain with K174N, G175R, W176S, V177Y, F178W
As to B15, the ELISA score in test [1] was found to be 0.3; in test [2], 61.

B16: L5 isolate with insertion SEQ ID NO: 423 (other)
chain: B1 chain with Q173N, K174H, G175E, W176E, V177T
Consider B16, for which the results for the ELISA score in test [1] and in test [2] were 0.4 and 60.2, respectively.

B17: L5 isolate with insertion SEQ ID NO: 413 (other)
chain: B1 chain with Q173M, K174T, G175Q, W176Y, V177N, F178W
B17: the results for the ELISA score in test [1] and in test [2] were 0.5 and 65.6, respectively.

B18: L5 isolate with insertion SEQ ID NO: 432 (other)
chain: B1 chain with Q173D, K174R, G175P, W176V, V177W
On to B18, for which the ELISA score in test [1] turned out to be 0.5; in test [2], 57.7.

B19: L5 isolate with insertion SEQ ID NO: 412 (other)
chain: B1 chain with Q173M, K174Q, G175P, V177A
Turning to B19, the values for the ELISA score in test [1] and in test [2] were 0.4 and 67.4, respectively.

B20: L5 isolate with insertion SEQ ID NO: 431 (other)
chain: B1 chain with Q173N, K174E, G175P, W176K, V177Y, F178V
With B20, the ELISA score in test [1] turned out to be 0.5; in test [2], 57.7.

B21: L5 isolate with insertion SEQ ID NO: 438 (other)
chain: B1 chain with Q173K, K174S, G175M, W176I, V177S, F178M
On to B21, for which the ELISA score in test [1] worked out at 0.2; in test [2] it was 55.2.

B22: L5 isolate with insertion SEQ ID NO: 409 (other)
chain: B1 chain with Q173V, K174Y, G175D, W176V, V177K, F178K
As to B22, the ELISA score amounted to 0.7 in test [1] and 71.2 in test [2].

B23: L5 isolate with insertion SEQ ID NO: 439 (other)
chain: B1 chain with Q173H, K174H, G175K, W176Q, V177D, F178Q
Regarding B23, the ELISA score in test [1] amounted to 0.6; in test [2] it was 54.9.

B24: L5 isolate with insertion SEQ ID NO: 443 (other)
chain: B1 chain with Q173S, K174R, G175V, W176F, V177K, F178Y
In the case of B24, the ELISA score in test [1] came to 0.7; in test [2], 54.2.

B25: L5 isolate with insertion SEQ ID NO: 415 (other)
chain: B1 chain with Q173Y, K174I, G175T, W176Q, V177K, F178L
For B25, the ELISA score in test [1] was 0.7; in test [2] it was 63.6.

B26: L5 isolate with insertion SEQ ID NO: 444 (other)
chain: B1 chain with Q173H, K174A, G175P, W176Q, V177W, F178E
On to B26, for which the ELISA score in test [1] came out at 0.3; in test [2], 53.2.

B27: L5 isolate with insertion SEQ ID NO: 411 (other)
chain: B1 chain with Q173N, K174M, G175L, V177G, F178S
Take B27: the ELISA score in test [1] amounted to 0.6; in test [2], 68.6.

B28: L5 isolate with insertion SEQ ID NO: 429 (other)
chain: B1 chain with Q173P, K174P, G175W, W176P, V177E, F178R
Take B28: the ELISA score turned out to be 0.3 in test [1] and 58.3 in test [2].

B29: L5 isolate with insertion SEQ ID NO: 426 (other)
chain: B1 chain with Q173M, K174Q, G175P, V177I, F178N
With B29, the values for the ELISA score in test [1] and in test [2] were 0.3 and 59.2, respectively.

B30: L5 isolate with insertion SEQ ID NO: 434 (other)
chain: B1 chain with Q173M, K174P, G175Y, W176E, V177M, F178H
On to B30, for which the ELISA score was determined as 0.4 in test [1] and 56.7 in test [2].

B31: L5 isolate with insertion SEQ ID NO: 430 (other)
chain: B1 chain with Q173H, K174D, G175P, W176E, V177P
Take B31: the ELISA score in test [1] came to 0.4; in test [2], 57.7.

B32: L5 isolate with insertion SEQ ID NO: 417 (other)
chain: B1 chain with Q173T, K174E, G175Q, W176V, V177M, F178W
Regarding B32, the values for the ELISA score in test [1] and in test [2] were 0.3 and 62.2, respectively.
